According to publication PMC11417181:

T1: partially deglycosylated complement factor H (100 h PNGase F) (human), P08603
T1 chain: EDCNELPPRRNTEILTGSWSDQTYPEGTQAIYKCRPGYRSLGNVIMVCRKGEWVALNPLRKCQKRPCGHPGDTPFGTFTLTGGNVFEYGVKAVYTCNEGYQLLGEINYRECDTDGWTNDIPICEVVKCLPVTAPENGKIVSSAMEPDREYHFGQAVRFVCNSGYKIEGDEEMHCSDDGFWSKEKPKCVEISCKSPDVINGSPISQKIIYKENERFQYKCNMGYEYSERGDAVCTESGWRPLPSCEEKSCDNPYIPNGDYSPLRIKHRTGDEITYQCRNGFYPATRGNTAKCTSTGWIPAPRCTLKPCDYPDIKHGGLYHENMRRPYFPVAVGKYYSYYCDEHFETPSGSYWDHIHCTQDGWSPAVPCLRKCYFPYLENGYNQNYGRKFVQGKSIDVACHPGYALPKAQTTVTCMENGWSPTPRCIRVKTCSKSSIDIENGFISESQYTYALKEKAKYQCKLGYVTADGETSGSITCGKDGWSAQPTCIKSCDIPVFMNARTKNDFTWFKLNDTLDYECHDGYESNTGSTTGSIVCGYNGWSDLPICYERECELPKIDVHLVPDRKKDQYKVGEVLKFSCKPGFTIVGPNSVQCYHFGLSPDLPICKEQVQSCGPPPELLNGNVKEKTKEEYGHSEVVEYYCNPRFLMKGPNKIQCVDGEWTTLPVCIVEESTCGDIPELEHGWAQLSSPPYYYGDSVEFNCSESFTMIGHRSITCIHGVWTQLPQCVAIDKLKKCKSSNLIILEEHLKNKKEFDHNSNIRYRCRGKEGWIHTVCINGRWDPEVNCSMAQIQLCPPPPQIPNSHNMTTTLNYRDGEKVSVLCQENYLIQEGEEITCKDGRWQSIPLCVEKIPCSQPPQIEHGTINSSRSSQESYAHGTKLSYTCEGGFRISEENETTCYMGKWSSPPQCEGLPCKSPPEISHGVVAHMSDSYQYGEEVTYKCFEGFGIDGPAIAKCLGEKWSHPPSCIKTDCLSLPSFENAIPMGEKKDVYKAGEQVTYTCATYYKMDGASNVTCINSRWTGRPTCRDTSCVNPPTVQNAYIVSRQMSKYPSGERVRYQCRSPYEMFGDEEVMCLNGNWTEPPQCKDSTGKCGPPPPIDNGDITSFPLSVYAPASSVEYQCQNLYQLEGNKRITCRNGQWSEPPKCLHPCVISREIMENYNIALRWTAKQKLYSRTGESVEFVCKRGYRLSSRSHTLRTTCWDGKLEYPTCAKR

T2: complement factor H, native glycosylated, full-length, purified from human plasma (human), P08603
T2 chain: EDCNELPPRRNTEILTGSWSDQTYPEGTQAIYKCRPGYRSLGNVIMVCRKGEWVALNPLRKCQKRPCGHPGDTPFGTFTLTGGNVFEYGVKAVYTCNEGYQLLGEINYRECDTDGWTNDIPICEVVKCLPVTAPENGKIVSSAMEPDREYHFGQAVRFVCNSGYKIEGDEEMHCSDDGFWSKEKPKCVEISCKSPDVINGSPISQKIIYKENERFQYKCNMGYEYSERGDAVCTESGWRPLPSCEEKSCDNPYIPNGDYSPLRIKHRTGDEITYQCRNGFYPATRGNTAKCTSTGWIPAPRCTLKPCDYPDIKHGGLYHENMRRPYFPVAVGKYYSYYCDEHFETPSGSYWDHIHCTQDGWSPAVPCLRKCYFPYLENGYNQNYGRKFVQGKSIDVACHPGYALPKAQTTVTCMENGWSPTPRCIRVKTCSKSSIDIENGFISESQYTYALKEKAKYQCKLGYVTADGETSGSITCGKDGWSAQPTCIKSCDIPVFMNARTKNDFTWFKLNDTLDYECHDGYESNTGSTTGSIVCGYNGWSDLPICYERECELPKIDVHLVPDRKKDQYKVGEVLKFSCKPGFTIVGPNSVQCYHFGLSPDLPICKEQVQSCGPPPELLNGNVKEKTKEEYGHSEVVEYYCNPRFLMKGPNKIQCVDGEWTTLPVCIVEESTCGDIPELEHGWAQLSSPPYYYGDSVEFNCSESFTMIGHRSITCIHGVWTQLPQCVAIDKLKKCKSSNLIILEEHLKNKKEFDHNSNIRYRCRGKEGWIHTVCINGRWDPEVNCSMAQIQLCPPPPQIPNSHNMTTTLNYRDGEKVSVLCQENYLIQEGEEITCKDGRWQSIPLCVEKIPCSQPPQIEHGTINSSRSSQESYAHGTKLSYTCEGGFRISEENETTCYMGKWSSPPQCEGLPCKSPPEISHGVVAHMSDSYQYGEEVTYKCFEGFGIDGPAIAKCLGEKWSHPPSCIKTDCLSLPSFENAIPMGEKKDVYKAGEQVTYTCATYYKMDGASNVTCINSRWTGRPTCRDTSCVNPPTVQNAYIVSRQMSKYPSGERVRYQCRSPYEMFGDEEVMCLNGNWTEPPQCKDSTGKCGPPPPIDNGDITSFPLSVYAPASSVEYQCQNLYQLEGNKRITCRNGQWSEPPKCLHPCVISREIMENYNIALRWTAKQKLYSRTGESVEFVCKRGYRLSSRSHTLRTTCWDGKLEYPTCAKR

T3: fully deglycosylated complement factor H (200 h PNGase F) (human), P08603
T3 chain: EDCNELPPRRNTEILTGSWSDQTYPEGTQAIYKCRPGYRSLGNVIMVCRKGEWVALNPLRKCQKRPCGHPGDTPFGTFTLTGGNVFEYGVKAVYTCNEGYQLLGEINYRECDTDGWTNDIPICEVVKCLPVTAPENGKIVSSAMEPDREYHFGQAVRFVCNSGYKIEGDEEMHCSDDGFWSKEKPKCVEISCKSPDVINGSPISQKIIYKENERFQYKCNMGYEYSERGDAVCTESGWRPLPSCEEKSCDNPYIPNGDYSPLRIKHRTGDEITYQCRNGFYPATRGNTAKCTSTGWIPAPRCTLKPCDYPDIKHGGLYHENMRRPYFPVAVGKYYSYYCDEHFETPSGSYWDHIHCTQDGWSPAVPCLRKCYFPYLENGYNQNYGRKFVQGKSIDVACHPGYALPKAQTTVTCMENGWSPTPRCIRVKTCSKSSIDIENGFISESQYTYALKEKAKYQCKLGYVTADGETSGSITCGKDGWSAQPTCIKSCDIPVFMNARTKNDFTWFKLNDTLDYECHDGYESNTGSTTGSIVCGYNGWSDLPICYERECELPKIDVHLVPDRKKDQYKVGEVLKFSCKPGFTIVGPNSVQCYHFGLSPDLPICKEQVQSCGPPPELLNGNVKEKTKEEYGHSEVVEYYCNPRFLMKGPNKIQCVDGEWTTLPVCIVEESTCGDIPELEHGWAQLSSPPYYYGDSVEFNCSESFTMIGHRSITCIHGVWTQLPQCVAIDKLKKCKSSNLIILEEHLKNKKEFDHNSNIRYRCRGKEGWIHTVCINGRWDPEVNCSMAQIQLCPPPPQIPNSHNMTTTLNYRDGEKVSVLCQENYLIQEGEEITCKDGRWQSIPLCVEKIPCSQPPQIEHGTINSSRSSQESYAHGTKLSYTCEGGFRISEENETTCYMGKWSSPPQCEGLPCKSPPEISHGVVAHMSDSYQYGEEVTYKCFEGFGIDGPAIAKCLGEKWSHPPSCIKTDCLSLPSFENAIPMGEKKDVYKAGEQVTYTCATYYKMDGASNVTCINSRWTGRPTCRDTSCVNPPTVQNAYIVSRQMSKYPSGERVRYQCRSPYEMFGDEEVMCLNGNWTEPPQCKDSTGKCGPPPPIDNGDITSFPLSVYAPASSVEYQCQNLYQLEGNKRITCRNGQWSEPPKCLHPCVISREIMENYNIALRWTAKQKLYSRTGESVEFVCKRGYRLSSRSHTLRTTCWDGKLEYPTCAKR


Tests used:
Settings in all cases: remark: other sources report otherwise
[1] = target: T1, partially deglycosylated complement …; test: AUC; sedimentation velocity of full-length CFH, 20 °C, 40,000 rpm, Hepes buffer, 0.2 to 1.8 mg/ml, c(s) analysis in SEDFIT, proportions from peak integration; monomer to dimer
[2] = target: T2, complement factor H, native …; test: SPR; Biacore X100, biotinylated glycosylated CFH on a streptavidin chip (781 RU), CFH preparations flowed at 0.01 to 1.8 μM, Hepes buffer, single-cycle, 1:1 steady-state affinity fit
[3] = target: T3, fully deglycosylated complement factor …; test: AUC; sedimentation velocity of full-length CFH, 20 °C, 40,000 rpm, Hepes buffer, 0.2 to 1.8 mg/ml, c(s) analysis in SEDFIT, proportions from peak integration; monomer to dimer

Row | Binder | proportion of dimer [1] [%] | stoichiometry N [1] | Kd [2] [µM] | proportion of dimer [3] [%] | stoichiometry N [3]
1 | partially deglycosylated complement factor H (100 h PNGase F), P08603 19-1231 (natural protein, here or on the partner: N-linked glycans partly removed with PNGase F: forms with three to six glycan chains were present; N-linked glycans partly removed with PNGase F: forms with three to six glycan chains were present) EDCNELPPRRNTEILTGSWSDQTYPEGTQAIYKCRPGYRSLGNVIMVCRKGEWVALNPLRKCQKRPCGHPGDTPFGTFTLTGGNVFEYGVKAVYTCNEGYQLLGEINYRECDTDGWTNDIPICEVVKCLPVTAPENGKIVSSAMEPDREYHFGQAVRFVCNSGYKIEGDEEMHCSDDGFWSKEKPKCVEISCKSPDVINGSPISQKIIYKENERFQYKCNMGYEYSERGDAVCTESGWRPLPSCEEKSCDNPYIPNGDYSPLRIKHRTGDEITYQCRNGFYPATRGNTAKCTSTGWIPAPRCTLKPCDYPDIKHGGLYHENMRRPYFPVAVGKYYSYYCDEHFETPSGSYWDHIHCTQDGWSPAVPCLRKCYFPYLENGYNQNYGRKFVQGKSIDVACHPGYALPKAQTTVTCMENGWSPTPRCIRVKTCSKSSIDIENGFISESQYTYALKEKAKYQCKLGYVTADGETSGSITCGKDGWSAQPTCIKSCDIPVFMNARTKNDFTWFKLNDTLDYECHDGYESNTGSTTGSIVCGYNGWSDLPICYERECELPKIDVHLVPDRKKDQYKVGEVLKFSCKPGFTIVGPNSVQCYHFGLSPDLPICKEQVQSCGPPPELLNGNVKEKTKEEYGHSEVVEYYCNPRFLMKGPNKIQCVDGEWTTLPVCIVEESTCGDIPELEHGWAQLSSPPYYYGDSVEFNCSESFTMIGHRSITCIHGVWTQLPQCVAIDKLKKCKSSNLIILEEHLKNKKEFDHNSNIRYRCRGKEGWIHTVCINGRWDPEVNCSMAQIQLCPPPPQIPNSHNMTTTLNYRDGEKVSVLCQENYLIQEGEEITCKDGRWQSIPLCVEKIPCSQPPQIEHGTINSSRSSQESYAHGTKLSYTCEGGFRISEENETTCYMGKWSSPPQCEGLPCKSPPEISHGVVAHMSDSYQYGEEVTYKCFEGFGIDGPAIAKCLGEKWSHPPSCIKTDCLSLPSFENAIPMGEKKDVYKAGEQVTYTCATYYKMDGASNVTCINSRWTGRPTCRDTSCVNPPTVQNAYIVSRQMSKYPSGERVRYQCRSPYEMFGDEEVMCLNGNWTEPPQCKDSTGKCGPPPPIDNGDITSFPLSVYAPASSVEYQCQNLYQLEGNKRITCRNGQWSEPPKCLHPCVISREIMENYNIALRWTAKQKLYSRTGESVEFVCKRGYRLSSRSHTLRTTCWDGKLEYPTCAKR | 15 | 2 |  |  | 
2 | fully deglycosylated complement factor H (200 h PNGase F), P08603 19-1231 (natural protein, here or on the partner: N-linked glycans removed with PNGase F: eight, seven, six or five removed, leaving none, one, two or three glycans; N-linked glycans removed with PNGase F: eight, seven, six or five removed, leaving none, one, two or three glycans) EDCNELPPRRNTEILTGSWSDQTYPEGTQAIYKCRPGYRSLGNVIMVCRKGEWVALNPLRKCQKRPCGHPGDTPFGTFTLTGGNVFEYGVKAVYTCNEGYQLLGEINYRECDTDGWTNDIPICEVVKCLPVTAPENGKIVSSAMEPDREYHFGQAVRFVCNSGYKIEGDEEMHCSDDGFWSKEKPKCVEISCKSPDVINGSPISQKIIYKENERFQYKCNMGYEYSERGDAVCTESGWRPLPSCEEKSCDNPYIPNGDYSPLRIKHRTGDEITYQCRNGFYPATRGNTAKCTSTGWIPAPRCTLKPCDYPDIKHGGLYHENMRRPYFPVAVGKYYSYYCDEHFETPSGSYWDHIHCTQDGWSPAVPCLRKCYFPYLENGYNQNYGRKFVQGKSIDVACHPGYALPKAQTTVTCMENGWSPTPRCIRVKTCSKSSIDIENGFISESQYTYALKEKAKYQCKLGYVTADGETSGSITCGKDGWSAQPTCIKSCDIPVFMNARTKNDFTWFKLNDTLDYECHDGYESNTGSTTGSIVCGYNGWSDLPICYERECELPKIDVHLVPDRKKDQYKVGEVLKFSCKPGFTIVGPNSVQCYHFGLSPDLPICKEQVQSCGPPPELLNGNVKEKTKEEYGHSEVVEYYCNPRFLMKGPNKIQCVDGEWTTLPVCIVEESTCGDIPELEHGWAQLSSPPYYYGDSVEFNCSESFTMIGHRSITCIHGVWTQLPQCVAIDKLKKCKSSNLIILEEHLKNKKEFDHNSNIRYRCRGKEGWIHTVCINGRWDPEVNCSMAQIQLCPPPPQIPNSHNMTTTLNYRDGEKVSVLCQENYLIQEGEEITCKDGRWQSIPLCVEKIPCSQPPQIEHGTINSSRSSQESYAHGTKLSYTCEGGFRISEENETTCYMGKWSSPPQCEGLPCKSPPEISHGVVAHMSDSYQYGEEVTYKCFEGFGIDGPAIAKCLGEKWSHPPSCIKTDCLSLPSFENAIPMGEKKDVYKAGEQVTYTCATYYKMDGASNVTCINSRWTGRPTCRDTSCVNPPTVQNAYIVSRQMSKYPSGERVRYQCRSPYEMFGDEEVMCLNGNWTEPPQCKDSTGKCGPPPPIDNGDITSFPLSVYAPASSVEYQCQNLYQLEGNKRITCRNGQWSEPPKCLHPCVISREIMENYNIALRWTAKQKLYSRTGESVEFVCKRGYRLSSRSHTLRTTCWDGKLEYPTCAKR |  |  | 11.5 | 16 | 2
